Measurements reported in ChEMBL document CHEMBL1123197, “(beta-Chloro-alpha-aminoethyl)phosphonic acids as inhibitors of alanine racemase and D-alanine:D-alanine ligase” (J Med Chem, 1986).

Assays:
[1] = substrate: C[C@H](N)C(=O)O; assay: Km value for Alanine racemase from Pseudomonas aeruginosa
[2] = substrate: NC(CCl)P(=O)(O)O; conditions: Pseudomonas aeruginosa
Description: Km for Alanine racemase from Pseudomonas aeruginosa

B1: Alanine racemase, biosynthetic (Escherichia coli K-12), P0A6B4 (protein)
chain: MQAATVVINRRALRHNLQRLRELAPASKMVAVVKANAYGHGLLETARTLPDADAFGVARLEEALRLRAGGITKPVLLLEGFFDARDLPTISAQHFHTAVHNEEQLAALEEASLDEPVTVWMKLDTGMHRLGVRPEQAEAFYHRLTQCKNVRQPVNIVSHFARADEPKCGATEKQLAIFNTFCEGKPGQRSIAASGGILLWPQSHFDWVRPGIILYGVSPLEDRSTGADFGCQPVMSLTSSLIAVREHKAGEPVGYGGTWVSERDTRLGVVAMGYGDGYPRAAPSGTPVLVNGREVPIVGRVAMDMICVDLGPQAQDKAGDPVILWGEGLPVERIAEMTKVSAYELITRLTSRVAMKYVD
Q: How did the Km [1] turn out when B1 was run?
A: 14.2 mM

Q: And the Km [2]?
A: 8 mM
